Measured values reported in publication PMC4506739.

Molecular target: importin α ΔIBB (NLS-recognition domain of importin α)
Test: ITC

| fold higher affinity than TPX2 NLS | stoichiometry N | Substance |
| --- | --- | --- |
| 9 fold | 1 | GM130 N74 S25D-GST (Cdk1 phospho-mimicking mutant) (from UniProt Q62839 1-74) (domain or fragment) |
|  | 1 | GST-TPX2 NLS wildtype (mouse TPX2 residues 302-322) (from UniProt A2APB8 302-322) (peptide) |
